Experimental data as given in article PMC6158747.

System: CytR DNA-binding domain
Assay: fluorescence anisotropy
Settings: Stopped-flow kinetics: 50 mM sodium phosphate, 30 mM NaCl, 1 mM EDTA, pH 6.0, 278 K, 300 nM Alexa-532 udp half-site, equilibrium isotherms at 293 K (buffer not …)

## udp half-site (Udp-Half)
  K half: 10 µM

## random DNA (Poly-AC DNA)
293 K, similar affinity to udp half-site
  K half: 10 µM

## PurR binding site (PurFO)
293 K, first of two overlapping titration profiles (K1/2,1)
  K half: 0.4 µM
